From patent publication US7504561B2, “GDC-1 genes conferring herbicide resistance” (Athenix Corporation, priority 2003, dated 2009) come the findings set out here.

This data set in a line: Standard pyruvate decarboxylase assay (coupled reaction with alcohol dehydrogenase, absorbance at 340 nm). In kind it is biochemical. The settings on record: 100 ng of GDC-1 protein. The procedure: 100 ng of GDC-1 protein was tested for activity in a standard pyruvate decarboxylase assay (Gounaris et al. (1971) J. of Biol. Chem. 246:1302-1309). This assay is a coupled reaction, wherein the first step the pyruvate decarboxylase (PDC) converts pyruvate to acetaldehyde and CO2. The acetaldehyde produced in this reaction is a substrate for alcohol dehydrogenase, which converts acetaldehyde and β-NADH to ethanol and β-NAD. Thus, PDC activity is detected by virtue of utilization of β-NADH as decrease in absorbance at 340 nm in a spectrophotometer. GDC-1 as well as a control enzyme (pyruvate decarboxylase, Sigma) were tested in this assay.

B1: GDC-1: glyphosate resistance-conferring decarboxylase from fungal strain ATX6394, SEQ ID NO:19; purified as 6×His-tagged protein (protein)
chain: MASINIRVQNLEQPMDVAEYLFRRLHEIGIRSIHGLPGDYNPLALDYLPSCGLRWVGSVNELNAAYAADGYARVKQMGALITTFGVGELSAINGVAGAFSEHVPVVHIVGCPSTASQRNGMLLHHTLGNGDFNIFANMSAQISCEVAKLTNPAEIATQIDHALRVCFIRSRPVYIMLPTDMVQAKVEGARLKEPIDLSEPPNDPEKEAYVVDVVLKYLRAAKNPVILVDACAIRHRVLDEVHDLIEKTNLPVFVTPMGKGAVNEEHPTYGGVYAGDGSHPPQVKDMVESSDLILTIGALKSDFNTAGFSYRTSQLNTIDLHSDHCIVKYSTYPGVQMRGVLRQVIKQLDASEINAQPAPVVENEVAKNRDNSPVITQAFFWPRVGEFLKKNDIVITETGTANFGIWDTKFPSGVTALSQVLWGSIGWSVGACQGAVLAAADDNSDRRTILFVGDGSFQLTAQELSTMIRLKLKPIIFVICNDGFTIERFIHGMEAEYNDIANWDFKALVDVFGGSKTAKKFAVKTKDELDSLLTDPTFNAAECLQFVELYMPKEDAPRALIMTAEASARNNAKTE
modifications: 6xHis tag; Fungal isolate from soil sample
notes: purified as 6×His-tagged protein
For the molecule B1, the Pyruvate decarboxylase activity entry is listed as “showed activity as a pyruvate decarboxylase”.
